Assay results published in PMC5308896, “A conformational switch regulates the ubiquitin ligase HUWE1” (eLife, 2017).
Ends that are not written are not given here.

What was measured:
Test in all cases: fluorescence polarisation; apparent KD; constant 1 μM TAMRA-labelled p14ARF (45–64) peptide titrated with HUWE1 protein; 25°C, 20 mM HEPES pH 8.0, 150 mM NaCl, 10% glycerol, 1 mM EDTA, 5 mM DTT; three independent experiments
Conditions in all cases: both partners purified
[1] = molecular target: T1, MBP-tagged activation segment of HUWE1 (residues 3843–3902) (human, UniProt Q7Z6Z7 3843-3902)
T1 construct: pETM41: N-terminal TEV protease-cleavable MBP-tag, C-terminal 3C protease-cleavable His6-tag; source: E. coli BL21(DE3), purified (IMAC, gel filtration); not shown: MBP, N-terminal, kept; His6, C-terminal, kept
T1 sequence (looked up): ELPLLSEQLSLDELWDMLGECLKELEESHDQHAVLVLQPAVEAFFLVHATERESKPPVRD

[2] = molecular target: T2, HUWE1 (3843–4374) (human, UniProt Q7Z6Z7 3843-4374)
T2 construct: source: LOBSTR RIL cells, purified (IMAC, gel filtration)
T2 sequence (looked up): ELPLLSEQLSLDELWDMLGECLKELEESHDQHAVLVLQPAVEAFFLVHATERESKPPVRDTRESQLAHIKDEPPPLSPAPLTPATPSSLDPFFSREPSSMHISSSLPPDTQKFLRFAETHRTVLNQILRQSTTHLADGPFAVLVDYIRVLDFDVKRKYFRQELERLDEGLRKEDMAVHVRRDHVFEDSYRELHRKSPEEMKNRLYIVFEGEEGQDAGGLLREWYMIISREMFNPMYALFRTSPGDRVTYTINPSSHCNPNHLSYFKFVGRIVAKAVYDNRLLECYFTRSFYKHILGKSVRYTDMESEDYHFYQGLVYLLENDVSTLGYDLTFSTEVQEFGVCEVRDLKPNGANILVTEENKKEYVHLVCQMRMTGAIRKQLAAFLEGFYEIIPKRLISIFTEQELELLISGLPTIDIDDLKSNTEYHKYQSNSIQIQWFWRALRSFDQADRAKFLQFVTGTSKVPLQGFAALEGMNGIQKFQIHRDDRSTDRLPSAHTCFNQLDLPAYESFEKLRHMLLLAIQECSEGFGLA

[3] = molecular target: T3, HUWE1 (3993–4374), HECT domain (human, UniProt Q7Z6Z7 3993-4374)
T3 construct: also called isolated HECT domain; source: LOBSTR RIL cells, purified (IMAC, gel filtration)
T3 sequence (looked up): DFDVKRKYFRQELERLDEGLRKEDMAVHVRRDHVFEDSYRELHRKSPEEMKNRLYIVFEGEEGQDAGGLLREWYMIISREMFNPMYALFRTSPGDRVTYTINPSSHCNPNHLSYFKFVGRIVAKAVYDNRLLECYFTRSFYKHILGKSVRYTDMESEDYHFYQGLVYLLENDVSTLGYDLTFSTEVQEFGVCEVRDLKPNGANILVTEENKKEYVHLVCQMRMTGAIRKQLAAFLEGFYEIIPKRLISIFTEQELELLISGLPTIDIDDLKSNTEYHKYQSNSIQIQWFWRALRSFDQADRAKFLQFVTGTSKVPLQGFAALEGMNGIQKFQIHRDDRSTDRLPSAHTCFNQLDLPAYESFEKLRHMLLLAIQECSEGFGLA

[4] = molecular target: T4, HUWE1 (3951–4374), untagged (human, UniProt Q7Z6Z7 3951-4374)
T4 construct: Monomer MW 49.752 kDa (AUC methods); source: LOBSTR RIL cells, purified (IMAC, TEV protease cleavage, second IMAC, gel filtration); not shown: His6, N-terminal, cleaved
T4 sequence (looked up): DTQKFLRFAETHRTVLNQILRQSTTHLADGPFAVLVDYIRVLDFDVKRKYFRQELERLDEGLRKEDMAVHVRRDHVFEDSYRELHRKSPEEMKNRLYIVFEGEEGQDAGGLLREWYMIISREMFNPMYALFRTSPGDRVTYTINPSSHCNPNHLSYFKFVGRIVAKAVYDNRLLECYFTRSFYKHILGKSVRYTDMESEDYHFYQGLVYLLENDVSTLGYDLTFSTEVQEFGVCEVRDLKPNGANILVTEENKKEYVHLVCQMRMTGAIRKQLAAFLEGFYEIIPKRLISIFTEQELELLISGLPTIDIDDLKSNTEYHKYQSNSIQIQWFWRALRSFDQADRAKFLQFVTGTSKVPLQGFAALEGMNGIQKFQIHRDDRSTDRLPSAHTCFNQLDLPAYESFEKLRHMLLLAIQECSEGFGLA

[5] = molecular target: T5, HUWE1 (3810–4374) (human, UniProt Q7Z6Z7 3810-4374)
T5 construct: source: LOBSTR RIL cells, purified (IMAC, gel filtration)
T5 sequence (looked up): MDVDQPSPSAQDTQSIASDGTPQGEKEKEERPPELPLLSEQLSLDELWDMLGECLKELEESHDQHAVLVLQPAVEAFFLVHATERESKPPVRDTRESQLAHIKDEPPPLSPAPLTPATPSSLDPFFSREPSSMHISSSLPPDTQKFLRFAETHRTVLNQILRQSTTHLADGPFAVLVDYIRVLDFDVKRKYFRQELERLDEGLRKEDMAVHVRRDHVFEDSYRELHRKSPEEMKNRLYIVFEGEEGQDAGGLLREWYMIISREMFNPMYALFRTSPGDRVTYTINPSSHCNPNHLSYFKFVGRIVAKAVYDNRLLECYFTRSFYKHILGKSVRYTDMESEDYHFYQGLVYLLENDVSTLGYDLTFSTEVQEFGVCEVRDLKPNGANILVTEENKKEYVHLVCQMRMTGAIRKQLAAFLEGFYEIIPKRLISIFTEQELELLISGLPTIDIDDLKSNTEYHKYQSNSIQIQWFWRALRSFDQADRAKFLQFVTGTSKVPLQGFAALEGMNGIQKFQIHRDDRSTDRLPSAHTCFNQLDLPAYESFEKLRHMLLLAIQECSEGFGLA

B1: fluorophor-labeled p14ARF-derived peptide (residues 45–64), TAMRA-labelled (peptide)
peptide: LVLMLLRSQRLGQQPLPRRPK(TAMRA)
notes: p14ARF (alternative reading frame product of CDKN2A), human, residues 45–64; additional lysine residue at the C-terminus that carries the TAMRA label (told in words); also called p14ARF-peptide; p14ARF (45-64); source: synthetic peptide, bought: Elim Biopharm
Work on B1 yielded a Kd [1] of 3.6 ± 0.2 µM, a Kd [2] of 5.2 ± 0.2 µM and a Kd [3] of 230 ± 40 µM. For the same binder, the Kd [4] was 280 ± 40 µM and the Kd [5] was 6 ± 1 µM.
